Laboratory results published in paper PMC10266124 (mAbs, 2023).

B1: mAb24 (S2E12) (antibody, V domains shown)
VH: not shown
VL: DIVLTQTPGTLSLSPGERATLSCRASQSVSSSYLAWYQQKPGQAPRLLIYGASSRATGIPDRFSGSGSGTDFTLTISRLEPEDFAVYYCQQYVGLTGWTFGQGTKVEIK
B2: mAb11 (298) (antibody, V domains shown)
VH: QVQLVQSGAEVKKPGASVKVSCKASGGTFSTYGISWVRQAPGQGLEWMGWISPNSGGTDLAQKFQGRVTMTRDTSTSTVYMELSSLRSEDTAVYYCASDPRDDIAGGYWGQGTLVTVSS
VL: not shown
B3: mAb22 (S304) (antibody, V domains shown)
VH: VQLVESGGGLVQPGGSLRLSCAASGFTFSSYDMHWVRQTTGKGLEWVSTIGTAGDTYYPDSVKGRFTISREDAKNSLYLQMNSLRAGDTAVYYCARGDSSGYYYYFDYWGQGTLLTVSS
VL: DIEMTQSPSSLSAAVGDRVTITCRASQSIGSYLNWYQQKPGKAPKLLIYAASSLQSGVPSRFSGSGSGTDFTLTISSLQPEDFAIYYCQQSYVSPTYTFGPGTKVDIK
B4: mAb10 (52) (antibody, V domains shown)
VH: QVQLVQSGAEVKKPGSSVKVSCKASGYTFTSYGISWVRQAPGQGLEWMGGIIPMFGTTNYAQKFQGRVTITADKSTSTAYMELSSLRSEDTAVYYCARDRGDTIDYWGQGTLVTVSS
VL: DIQMTQSPSSLSASVGDRVTITCRASQGISNNLNWYQQKPGKAPKLLIYAASSLESGVPSRFSGSGSGTDFTLTISSLQPEDFATYYCQQGNGFPLTFGPGTKVDIK
B5: mAb08 (B38) (antibody, V domains shown)
VH: EVQLVESGGGLVQPGGSLRLSCAASGFIVSSNYMSWVRQAPGKGLEWVSVIYSGGSTYYADSVKGRFTISRHNSKNTLYLQMNSLRAEDTAVYYCAREAYGMDVWGQGTTVTVSS
VL: DIVMTQSPSFLSASVGDRVTITCRASQGISSYLAWYQQKPGKAPKLLIYAASTLQSGVPSRFSGSGSGTEFTLTISSLQPEDFATYYCQQLNSYPPYTFGQGTKLEIK
B6: mAb26 (4A8) (antibody, V domains shown)
VH: EVQLVESGAEVKKPGASVKVSCKVSGYTLTELSMHWVRQAPGKGLEWMGGFDPEDGETMYAQKFQGRVTMTEDTSTDTAYMELSSLRSEDTAVYYCATSTAVAGTPDLFDYYYGMDVWGQGTTVTVSS
VL: EIVMTQSPLSSPVTLGQPASISCRSSQSLVHSDGNTYLSWLQQRPGQPPRLLIYKISNRFSGVPDRFSGSGAGTDFTLKISRVEAEDVGVYYCTQATQFPYTFGQGTKVDIK
B7: mAb15 (C119) (antibody, V domains shown)
VH: QVQLVQSGAEVKKPGASVKVSCKASGYTFTSYYMHWVRQAPGQGLEWMGIINPSGGSTSYAQKLQGRVTMTRDTSTSTVYMELSSLRSEDTAVYYCARANHETTMDTYYYYYYMDVWGKGTTVTVSS
VL: QSALTQPASVSGSPGQSITISCTGTSSDVGGYKYVSWYQRHPGKAPKLMIYDVSNRPSGVSNRFSGSKSGNTASLTISGLQAEDEADYYCSSYTSSSTSVVFGGGTQLTVL
B8: mAb27 (H014) (antibody, V domains shown)
VH: EVQLVQSGAEVKKPGATVKISCKVSGYSFSNYYIHWVKQAPGKSLEWIGYIDPFNGGTSDNLKFKGAATLTADTSTDTAYMELSSLRSEDTAVYYCARSEYDPYYVMDYWGQGTTVTVSS
VL: IVLTQSPFQSVSPKEKVTITCRASQSISSNLHWYQQKPDQSPKLLIKYASQSISGIPSRFSGSGSGTDFTLTINSLEAEDFGIYFCQQTNFWPYIFGQGTKLEIL
B9: mAb02 (casirivimab) (antibody, V domains shown)
VH: QVQLVESGGGLVKPGGSLRLSCAASGFTFSDYYMSWIRQAPGKGLEWVSYITYSGSTIYYADSVKGRFTISRDNAKSSLYLQMNSLRAEDTAVYYCARDRGTTMVPFDYWGQGTLVTVSS
VL: DIQMTQSPSSLSASVGDRVTITCQASQDITNYLNWYQQKPGKAPKLLIYAASNLETGVPSRFSGSGSGTDFTFTISGLQPEDIATYYCQQYDNLPLTFGGGTKVEIK
B10: mAb23 (COVA1-16) (antibody, V domains shown)
VH: QVQLVQSGAEVKKPGASVKVSCKASGYTFTSYYMHWVRQAPGQGLEWMGIINSSGGSTSYAQKFQGRVTMTRDTSTSTVYMELSSLRSEDTAVYYCARPPRNYYDRSGYYQRAEYFQHWGQGTLVTVSS
VL: DIQLTQSPSSLSASVGDRVTITCQASQDISNYLNWYQQRPGKAPKLLIYDASNLETGVPSRFSGSGSGTDFTFTISSLQPEDIATYYCQQYDNPPLTFGGGTKLEIK
B11: mAb29 (regdanvimab) (antibody, V domains shown)
VH: QITLKESGPTLVKPTQTLTLTCSFSGFSLSTSGVGVGWIRQPPGKALEWLALIDWDDNKYHTTSLKTRLTISKDTSKNQVVLTMTNMDPVDTATYYCARIPGFLRYRNRYYYYGMDVWGQGTTVTVSS
VL: ELVLTQPPSVSAAPGQKVTISCSGSSSNIGNNYVSWYQQLPGTAPKLLIYDNNKRPSGIPDRFSGSKSGTSATLGITGLQTGDEADYYCGTWDSSLSAGVFGGGTELTVL
B12: mAb01 (bamlanivimab) (antibody, V domains shown)
VH: QVQLVQSGAEVKKPGSSVKVSCKASGGTFSNYAISWVRQAPGQGLEWMGRIIPILGIANYAQKFQGRVTITADKSTSTAYMELSSLRSEDTAVYYCARGYYEARHYYYYYAMDVWGQGTAVTVSS
VL: not shown
B13: mAb03 (imdevimab) (antibody, V domains shown)
VH: QVQLVESGGGVVQPGRSLRLSCAASGFTFSNYAMYWVRQAPGKGLEWVAVISYDGSNKYYADSVKGRFTISRDNSKNTLYLQMNSLRTEDTAVYYCASGSDYGDYLLVYWGQGTLVTVSS
VL: QSALTQPASVSGSPGQSITISCTGTSSDVGGYNYVSWYQQHPGKAPKLMIYDVSKRPSGVSNRFSGSKSGNTASLTISGLQSEDEADYYCNSLTSISTWVFGGGTKLTVL
B14: mAb25 (S2M11) (antibody, V domains shown)
VH: EVQLVQSGAEVKKPGASVKVSCKASGYTFTGYYMHWVRQAPGQGLEWMGWINPISSGTSYAQTFQGRVTMTSDTSITTAYMELSRLRSDDTAVYYCARAAPFYDFWSGYSYFDYWGQGTLVTVSS
VL: not shown
B15: mAb18 (CV07-250) (antibody, V domains shown)
VH: QVQLVQSEAEVKEPGASVEVSCKASGYNFTNFAISWVRQAPGQGLEWMGWISGYNGDTNSAQKFLGRVTMTTDTSTTTAYMELRSLRSDDTAVYYCAGSDNYGFPYNGMDVWGQGTTVTVFN
VL: QSALTQPPSASGSPGQSVTISCTGTSSDLGAYHFVTWYQHYPGKAPKVMIYGVRKRPSGVPDRFSGSKSGNTASLTVSGLQDEDEADYYCSSYAGNNDFVFGGGTKLTVL
B16: mAb21 (S2A4) (antibody, V domains shown)
VH: EVQLVESGGGLVQPGGSLRLSCAASGFTFSSYWMNWVRQAPGKGLEWVANIKQDGSEKYYVDSVKGRFTISRDNAKNSLFLQMNSLRAEDTAVYYCARVWWLRGSFDYWGQGTLVTVSS
VL: NFMLTQPHSVSESPGKTVTISCTGSSGSIASNYVQWYQQRPGSAPTTVIYEDNQRPSGVPDRFSGSIDSSSNSASLTISGLKTEDEADYYCQSYDSSNHVVFGGGTKLTVL
B17: mAb09 (etesevimab) (antibody, V domains shown)
VH: EVQLVESGGGLVQPGGSLRLSCAASGFTVSSNYMSWVRQAPGKGLEWVSVIYSGGSTFYADSVKGRFTISRDNSMNTLFLQMNSLRAEDTAVYYCARVLPMYGDYLDYWGQGTLVTVSS
VL: not shown
B18: mAb16 (C121) (antibody, V domains shown)
VH: not shown
VL: QSALTQPASVSGSPGQSITISCTGTSSDVGSYNLVSWYQQHPGKAPKLMIYEGSKRPSGVSNRFSGSKSGNTASLTISGLQAEDEADYYCCSYAGSSTLVFGGGTKLTVL
B19: mAb19 (CV07-270) (antibody, V domains shown)
VH: QVQLVESGGGLVKPGGSLRLSCAASGFTFSDYYMTWIRQAPGKGLEWVSYISSSGSTIYYADSVKGRFTISRDNAKNSLYLQMNSLRAEDTAVYYCARARGSSGWYRIGTRWGNWFDPWGQGTLVTVSS
VL: QSALTQPASVSGSPGQSITISCTGTSSDVGGYNYVSWYQQHPGKAPKLMIYEVSNRPSGVSNRFSGSKSGNTASLTISGLQAEDEADYYCSSYTSSSNVVFGGGTMLTVL
B20: mAb14 (C002) (antibody, V domains shown)
VH: EVQLVESGGGVVQPGRSLRLSCAASGFTFSIYGMHWVRQAPGKGLEWVAVISYDGSNKYYADSVKGRFTISRDNSKNTLYLQMNSLRAEDTAVYYCAKEGRPSDIVVVVAFDYWGQGTLVTVSS
VL: not shown

Molecular target: Biotinylated SARS-CoV-2 spike S1 protein (SARS-CoV-2, Wuhan, UniProt P0DTC2, biotin (biotinylated))
Assay: SPR

Binder | binding result
B1 | binds
B2 | binds
B3 | binds
B4 | binds
B5 | binds
B6 | binds
B7 | binds
B8 | binds
B9 | binds
B10 | binds
B11 | binds
B12 | binds
B13 | binds
B14 | binds
B15 | binds
B16 | binds
B17 | binds
B18 | binds
B19 | binds
B20 | binds
